The source of these data is patent publication US20230118024A1 (Chugai, published 2023).

In experiment [1] the target is T1, HLA-DQ2.5/secalin 1 peptide complex on Ba/F3 cells (human; rye).
T1 construct: also called Ba/F3-HLA-DQ2.5/secalin 1 peptide
Description: FACS. (In general: Flow cytometry measures light scatter and fluorescence of single cells or particles in a stream.)

The target in experiment [2] is T2, HLA-DQ2.5/secalin 2 peptide complex on Ba/F3 cells (human; rye).
T2 construct: also called Ba/F3-HLA-DQ2.5/secalin 2 peptide
Description: FACS.

In experiment [3] the target is T3, HLA-DQ2.5/33mer gliadin peptide complex on Ba/F3 cells (human; wheat).
T3 construct: also called Ba/F3-HLA-DQ2.5/33mer gliadin peptide; HLA-DQ2.5/gliadin peptide complex
Put plainly: FACS.

In experiment [4] the target is T4, HLA-DQ2.5/alpha 1b gliadin peptide complex on Ba/F3 cells (human; wheat).
T4 construct: also called Ba/F3-HLA-DQ2.5/alpha 1b gliadin peptide
Description: FACS.

Experiment [5] addresses T5, HLA-DQ2.5/alpha 2 gliadin peptide complex on Ba/F3 cells (human; wheat).
T5 construct: also called Ba/F3-HLA-DQ2.5/alpha 2 gliadin peptide
Put plainly: FACS.

In experiment [6] the target is T6, HLA-DQ2.5/omega 1 gliadin peptide complex on Ba/F3 cells (human; wheat).
T6 construct: also called Ba/F3-HLA-DQ2.5/omega 1 gliadin peptide
Description: FACS.

In experiment [7] the target is T7, HLA-DQ2.5/omega 2 gliadin peptide complex on Ba/F3 cells (human; wheat).
T7 construct: also called Ba/F3-HLA-DQ2.5/omega 2 gliadin peptide
Put plainly: FACS.

For experiment [8], the target named is T8, HLA-DQ2.5/CLIP peptide complex on Ba/F3 cells (human).
T8 construct: also called Ba/F3-HLA-DQ2.5/CLIP peptide
Description: FACS.

Experiment [9] deals with T9, HLA-DQ2.5/alpha 1 gliadin peptide complex on Ba/F3 cells (human; wheat).
T9 construct: also called Ba/F3-HLA-DQ2.5/alpha 1 gliadin peptide
Put plainly: FACS.

Experiment [10] concerns the target T3, HLA-DQ2.5/33mer gliadin peptide complex …. Put plainly: cell-based or functional assay.
The target in experiment [11] is T10, recombinant HLA-DQ2.5/33mer gliadin peptide complex (human; wheat).
T10 construct: also called soluble HLA-DQ2.5/33mer gliadin peptide complex
T10 alpha: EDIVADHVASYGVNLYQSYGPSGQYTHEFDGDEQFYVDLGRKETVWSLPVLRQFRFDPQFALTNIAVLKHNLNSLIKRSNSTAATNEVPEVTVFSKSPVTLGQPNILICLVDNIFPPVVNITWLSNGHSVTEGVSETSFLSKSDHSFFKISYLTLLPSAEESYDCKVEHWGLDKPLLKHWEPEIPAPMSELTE
T10 beta: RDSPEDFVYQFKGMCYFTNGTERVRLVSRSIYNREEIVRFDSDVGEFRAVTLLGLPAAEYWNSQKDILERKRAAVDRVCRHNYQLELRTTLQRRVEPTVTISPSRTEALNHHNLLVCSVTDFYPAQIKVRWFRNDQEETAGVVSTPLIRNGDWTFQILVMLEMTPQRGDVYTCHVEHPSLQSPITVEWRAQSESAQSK
T10 peptide: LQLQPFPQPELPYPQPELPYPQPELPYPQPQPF
Description: SPR, Ab captured, 37 C, pH 7.4.

B1: DQN0333hh (antibody, human IgG1, kappa, V domains shown)
VH: QSVEESGGRLVMPGGSLTLTCTASGFSLSSYYMNWVRQAPGKGLEWIGVIYSTDITDYATWATGRFTISKTSTTVDLKMTSLTAADTATYFCARELSPTTSGYIAYLWGPGTLVTVSS
VL: AYDMTQTPASVEVAVGGTVTIKCQASQSISSYLAWYQQKPGQPPKLLIYSASTLASGVPSRFKGSGSGTQFTLTVIDVQCDDAATYYCQQTYSGKNVINTFGGGTKVEIKR
notes: also called DQN0333Lh
With B1, the “FIG. 30 FACS value (IC17=0, DQN0139bb=100)” value (“FIG. 30 FACS value” below) was found to be 110 in experiment [1]; 106 in experiment [2]; 106 in experiment [3]; 108 in experiment [4]; 118 in experiment [5]; 106 in experiment [6]. The “FIG. 30 FACS value” value was 128 in experiment [7] and 116 in [8].

B2: DQN0370hh (antibody, human IgG1, kappa, V domains shown)
VH: QSLEESGGGLVKPGGPLTLTCTASGFSFSSAYYMCWVRQAPGKGLEWIACIYVGSGSTYYTSWAKGRFTISKVSSTTMTLQMTSLTAADTATYFCARDPLIYYYYGELNLWGPGTLVTVSS
VL: AVVLTQTASPVSAPVGGTVTIKCQASEDIYSNLAWYQQKPGQRPKVLIYSASTLASGVSSRFKGSRSGTEYTLSITDLGCADAATYYCQAYYDIGGVTFGGGTKVEIKR
notes: also called DQN0370Lh
As to B2, the “FIG. 30 FACS value” value in [1] was found to be 79.2; in experiment [9], 91.2; in experiment [2], 68.1; in experiment [3], 107; in [4], 79.2; in [5], 83.7. The “FIG. 30 FACS value” value came out at 73.7 in [6], 65.8 in experiment [7] and 1 in [8]. For the same molecule, the “IC50 (read off the curve)” value in experiment [10] was roughly 0.3 µg/mL. The Kd (usually the free concentration of one partner at which half of the binding sites on the other are occupied at equilibrium, for simple one-to-one binding) in [11] is 4.47 nM.

B3: DQN0235ee (antibody, human IgG1, kappa, V domains shown)
VH: QQQLEESGGGLVKPGGTLTLTCKAGIDFSTYYYMCWVRQAPGKRPEWIACIFDGDGSTYYASWVNGRFTISKASSTTVTLRMTSLTAADTATYFCARSAGGSSSFGYFNLWGPGTLVTVSS
VL: AYDMTQTPSSVSAAVGGTVTIKCQASQSISSSYLAWYHQKPGQSPKLLIYSASTLASGVPSRFKGSGSGTEFTLTISDLACADAATYYCQSYYYFSSNAWHTFGGGTKVEIKR
notes: also called DQN0235He; DQN0235Le
Take B3: the “FIG. 30 FACS value” value in experiment [1] worked out at 73.4; in experiment [9], 52.3; in experiment [2], 71.1; in experiment [3], 70.1; in experiment [5], 81.3; in experiment [6] it was 75.2. In addition, the “FIG. 30 FACS value” value in experiment [7] stood at 78.8; in experiment [8], 82.

B4: DQN0356bb (antibody, human IgG1, kappa, V domains shown)
VH: QEQLVESGGGLVKPEGSLTLTCTASGFSFSSDYSVCWVRQAPGKGLEWIGCIYTGSDITYYASWAKGRFTISKTSSTTVTLQMTSLTAADTATWFCARSWNGYGGYADLWGPGTLVTVSS
VL: AYDMAQTPASVEVAVGGTVTIKCQASQSIDNYLAWYQQKPGQPPKLLIYWASTLASGVSSRFKGSGSGTQFSLTISDLECADAATYYCQQYYSNSNVVNTFGGGTKVEIKR
notes: also called DQN0356Hb; DQN0356Lb
As for B4, the “FIG. 30 FACS value” value in [1] was 74.5; in experiment [9] it was 94.9; in experiment [2], 77.8; in experiment [3], 91.1; in experiment [4], 88; in experiment [5] it was 85.6. Further, the “FIG. 30 FACS value” value in experiment [6] was determined as 76; in experiment [7], 68.8; in experiment [8], 98.3.

B5: DQN0344xx (antibody, human IgG1, kappa, V domains shown)
VH: QSLEESGGGLVKPGGTLTLTCTASGFSFSSSYWMCWVRQAPGKGLEWVACVYGGSDTTYYASWTKGRFTISKGSSTTVALQVTSLTAADTATYFCARDPLNYYYYGELNLWGPGTLVTVSS
VL: AVVLTQTASPVSAAVGGTVTIRCQATENIYSGLAWYQQKPGQPPKVLIYYVSTLASGVPSRFKGSGSGTEYTLTISGVQCDDAATYYCQTYHDISNVTFGGGTKVEIKR
notes: also called DQN0344Hx; DQN0344Lx
Take B5: the “FIG. 30 FACS value” value in experiment [1] worked out at 73.9; in experiment [9], 89.7; in experiment [2], 60.6; in experiment [3] it was 106; in [4] it was 75.3; in experiment [5], 81.9. In addition, the “FIG. 30 FACS value” value in [6] stood at 68.8; in experiment [7], 3.7. For the same molecule, in [10], the “IC50 (read off the curve)” value is roughly 0.3 µg/mL.

B6: DQN0303hh (antibody, human IgG1, kappa, V domains shown)
VH: QQHLEESGGGLVKPGGTLTLTCTASGIDFSSYYYMCWVRQAPGKGLEWIACIYTGDGSTYYASWVNGRFTISRSTSLNTVTLQLNGLAAADTATYFCARSYGASSAIGYFNLWGPGTLVTVSS
VL: DVVMTQTPSSKSAAVGGTVTIKCQASQNIYSNLAWYQQKPGQRPKLLIYEASTLASGVPSRFRGSGSGTEFTLTISDLECDDAATYYCQNYYYTSSNDFYTFGGGTKVEIKR
notes: also called DQN0303Lh
On to B6, for which the “FIG. 30 FACS value” value in experiment [1] came out at 64.5; in [9], 51.4; in [2], 59.4; in [3], 72.8; in experiment [4] it was 41.5; in [5], 62.6. Further, the “FIG. 30 FACS value” value in [6] turned out to be 56.2; in experiment [7], 91.7; in experiment [8], 80.

B7: DQN0223hh (antibody, human IgG1, kappa, V domains shown)
VH: QQQLEESGGGLVKPGGTLTLTCKASRIDFSTYYYICWVRQSPWKGLEWIACIYSGDGYTYYPSWAKGRFSISKTSSTTVTLQVTSLTAADTATYFCARSYGGSSASAYFTLWGPGTQVTVSS
VL: AVVLTQTASPVSAPVGGTVTIKCQASQSIGSNLGWYQQKPGQPPKLLIYGASALASGVPSRFKGSGSGTQFTLTINDLECADAATYYCQGYYYSSSAEWHSFGGGTKVEIKR
notes: also called DQN0223Lh
As to B7, the “FIG. 30 FACS value” value in experiment [1] came to 47.6; in experiment [9], 27.9; in experiment [2], 48.4; in experiment [3], 59.5; in [4], 36; in experiment [5] it was 46.8. The “FIG. 30 FACS value” value in experiment [6] turned out to be 46; in experiment [7], 59; in [8], 60.2.
